According to patent publication US6825165B1, “Betacellulin modification” (Takeda Chemical Industries, Ltd., priority 1998, dated 2004):

What was measured:
AR42J cells [1] = experiment: β cell differentiation promoting activity using AR42J cells (anti-insulin immunofluorescence), Example 9; assay type: cell-based; details: 5 days incubation, anti-insulin antibody/FITC staining (FIG. 5)
Text: Cells of the AR42J cell line derived from pancreatic cancer induced by chemical carcinogens (Christophe, Am. J. Physiol., 266: G963 (1994)) were suspended to a concentration of 10^5 cells/mL using Dulbecco's modified Eagle MEM medium containing 10% fetal calf serum and the Met-77 residue betacellulin prepared in Example 3, the Met-76 residue betacellulin prepared in Example 6, or the Met-80 residue betacellulin prepared in accordance with the method in Japanese Unexamined Patent Application (Kokai) H10-191989. 500 μL of these suspensions were inoculated to chamber slides and incubated for 5 days at 37° C. in carbon dioxide gas incubators (5% carbon dioxide gas, 95% air). After 5 days, the cells were washed once with PBS, fixed in 10% formaldehyde, and treated for 5 min with 0.1% Triton X-100. Block Ace (Snow Brand, Japan) was then added for 40 minutes of blocking at room temperature. Anti-insulin antibodies (by Advanced Immunochemicals) diluted with 10% Block Ace were added, and a reaction was performed for 40 minutes at room temperature. 0.1% Triton X-100 was added, the reaction solution was allowed to stand for 5 minutes at room temperature, and the cells were then washed three times with PBS. FITC (fluorescein isothiocyanate) labeled anti-mouse IgG antibodies (Cappel) diluted with 10% Block Ace were added, and a reaction was brought about for 40 minutes. 0.1% Triton X-100 was added, the reaction solution was allowed to stand for 5 minutes, the cells were then washed three times with PBS, and they were then observed under a fluorescent microscope.

[2] = test system: PLAP expression AR42J cells; experiment: β cell differentiation promoting activity using human placenta alkaline phosphatase expression AR42J cells, Example 20; assay type: cell-based; details: 5 days incubation, read-out: BTC activity EC50
Experimental: 100 μL of these suspensions were inoculated to 96 well plates and incubated for 5 days at 37° C. in carbon dioxide gas incubators (5% carbon dioxide gas, 95% air). After 5 days, the culture supernatant were treated for 30 minutes at 65° C., and 50 μL was then added to 96-well microplates containing 50 μL of 2×SEAP (2M diethanolamine, 1 mM MgCl2, 20 mM homoarginine). 10 μL of 20 mg/mL p-nitrophenylphosphoric acid (Sigma) was added, and a reaction was brought about for 16 hours at 37° C. The ratio between EGF activity and the BTC activity of all the muteins decreased to about 5% of that of the Met-80 residue betacellulin, and was about the same as that of the Met-76 residue betacellulin, with no apparent influence by the N terminal deletion.

[3] = biological target: T1, EGF receptor (A431 cells, high EGF receptor expression line) (Homo sapiens, UniProt P00533); experiment: EGF binding assay using A431 cells (inhibition of 125I-EGF binding); details: for IC50: A431 cells, 0.25 nM 125I-EGF, 90 minutes at 4° C.; for EGF/BTC relative to Met-BTC80: ratio between EGF activity and BTC activity, Met-BTC80 = 100%
T1 construct: human squamous epithelial carcinoma cells A431 (high EGF receptor expression line); endogenous in cells; host or cells: A431 human squamous epithelial carcinoma cells (intact, adherent)
Experimental: Cell growth promoting activity was assayed by means of the inhibiting activity of binding to ^125I-EGF using human squamous epithelial carcinoma cells A431 (high EGF receptor expression line).
Specifically, 100 μL of A431 cells suspended to a concentration of 10^5 cells/mL using Dulbecco's modified Eagle MEM (DMEM) medium supplemented with 10% fetal calf serum were inoculated to 96 well plates and cultured for 2 days at 37° C. in carbon dioxide gas incubators (5% carbon dioxide gas and 95% air). […] The mixtures were allowed to stand for 90 minutes at 4° C., and then washed 3 times with 200 μL of binding medium, and the cells were lysed in 200 μL of 0.1 N sodium hydroxide aqueous solution containing 1% SDS. The cell lysate was then transferred to scintillation vials, 1 mL of Scintillator A (Wako Pure Chemicals) was added, and the inhibiting activity of binding to ^125I-EGF was assayed with a scintillation counter.

[4] = test system: PLAP expression AR42J cells; experiment: Selection of PLAP expression AR42J clones: alkaline phosphatase activity with and without betacellulin; assay type: cell-based; details: 20 ng/mL Met-80 residue betacellulin, 4 days culture
Experimental: (§1) The differentiation promoting activity into β cells was also determined using AR42J cells transformed with the vector having alkaline phosphatase which had been ligated as a reporter downstream of the insulin promoter. Specifically, cells which have differentiated into β cells by addition of betacellulin produce alkaline phosphatase. As a result, by assaying the alkaline phosphatase activity, the differentiation promoting activity into β cells can be quantitatively assayed.
The pMCneopolyA plasmid (Stratagene) containing the neor gene of TnS and the PLAP expression plasmid pTB1898 were simultaneously introduced into AR42J cells using the transfection reagent TransIT™-LT1 (Mirus, PenVera Corporation). The plasmid introduced cells were then cultured for 2 days in DMEM supplemented with 10% fetal calf serum, and the culture was then continued in selection medium supplemented with 800 μg/mL G418 (geneticin, Gibco BRL). Clones were isolated by limiting dilution of cells growing with G418 resistance.
Cells of each clone were seeded to 24 well plates and cultured for 4 days with and without the addition of 20 ng/mL Met-80 residue betacellulin. The supernatant was collected and heat treated for 30 minutes at 65° C., and the alkaline phosphatase activity in the media was then assayed. Clones showing increased alkaline phosphatase activity with the addition of 80-residue betacellulin were selected.

[5] = test system: PLAP expression AR42J cells; experiment: β cell differentiation promoting activity using PLAP expression AR42J cells, Example 12; assay type: cell-based; details: 5 days, varying concentrations (FIG. 6)
Experimental: as §1
The PLAP expression AR42J cells constructed in Example 11 were suspended to a concentration of 10^5 cells/mL using Dulbecco's modified Eagle MEM medium containing 10% fetal calf serum and varying concentrations of the Met-77 residue betacellulin prepared in Example 3, the Met-76 residue betacellulin prepared in Example 6, or the Met-80 residue betacellulin prepared in accordance with the method in Japanese Unexamined Patent Application (Kokai) H10-191989. 100 μL of these suspensions were inoculated to 96 well plates and incubated for 5 days at 37° C. in carbon dioxide gas incubators (5% carbon dioxide gas, 95% air). After 5 days, the supernatant was taken and treated for 30 minutes at 65° C., and 50 μL was added to 96-well microplates containing 50 μL of 2×SEAP (2M diethanolamine, 1 mM MgCl2, 20 mM homoarginine). […]

[6] = biological target: T2, EGF receptor on human squamous epithelial carcinoma cells A431 (human, UniProt P00533 25-1210); experiment: competition with 0.25 nM 125I-EGF on A431 cells
T2 construct: whole, on cells; also called A431 cells (high EGF receptor expression line)
Experimental: The mixtures were allowed to stand for 90 minutes at 4° C., and then washed 3 times with 200 μL of binding medium, and the cells were lysed in 200 μL of 0.1 N sodium hydroxide aqueous solution containing 1% SDS.

AR42J cells [7] = experiment: β cell differentiation promoting activity using AR42J cells (anti-insulin immunofluorescence), Example 26; assay type: cell-based; details: 5 days incubation
Experimental: Cells of the AR42J cell line derived from pancreatic cancer induced by chemical carcinogens (Christophe, Am. J. Physiol., 266: G963 (1994)) were suspended to a concentration of 10^5 cells/mL in Dulbecco's modified Eagle MEM medium containing 10% fetal calf serum and one of hBTC50, Mutein A, Mutein B, or the 80-residue betacellulin (hBTC80) prepared in accordance with the method in Japanese Unexamined Patent Application (Kokai) H10-191989. 500 μL of these suspensions was inoculated on chamber slides and incubated for 5 days at 37° C. in carbon dioxide gas incubators (5% carbon dioxide gas, 95% air). After 5 days, the cells were washed once with PBS, fixed in 10% formaldehyde, and treated for 5 min with 0.1% Triton X-100. Block Ace (Snow Brand, Japan) was then added for 40 minutes of blocking at room temperature. Anti-insulin antibodies (by Advanced Immunochemicals) diluted with 10% Block Ace were added, and reacted for 40 minutes at room temperature. 0.1% Triton X-100 was added, the reaction solution was allowed to stand for 5 minutes at room temperature, and the cells were then washed three times with PBS. FITC (fluorescein isothiocyanate) labeled anti-mouse IgG antibodies (Cappel) diluted with 10% Block Ace were added, and a reaction was brought about for 40 minutes. 0.1% Triton X-100 was added, the reaction solution was allowed to stand for 5 minutes, the cells were then washed three times with PBS, and they were then observed under a fluorescent microscope.

Molecule	Differentiation into insulin-producing β cells (stained cells under fluorescent microscope) (AR42J cells [1])	EC50 [2] [nM]	IC50 [3] [nM]	EGF/BTC relative to Met-BTC80 [3] [%]	Promoting activity in inducing differentiation compared with Met-80 residue betacellulin [5]	IC50 [6] [nM]	further results
Met-BTC80: 80 residue human betacellulin (SEQ ID NO: 35) with N terminal Met, prepared by the method of Kokai H10-191989 [reference compound]	cells which had differentiated into insulin-producing β cells were found	0.07	1.2	100.0	–	–	PLAP activity (A 405), BTC added ([4]; clone AR1898-033, no BTC added: 0.034): 0.366 A 405; PLAP activity (A 405), BTC added ([4]; clone AR1898-053, no BTC added: 0.008): 0.089 A 405; PLAP activity (A 405), BTC added ([4]; clone AR1898-0192, no BTC added: 0.077): 0.752 A 405
Met-BTC76: 76 residue betacellulin lacking four C terminal residues (SEQ ID NO: 2) with N terminal Met (protein, N-terminal Met; Human) DGNSTRSPETNGLLCGDPEENCAATTTQSKRKGHFSRCPKQYKHYCIKGRCRFVVAEQTPSCVCDEGYIGARCERV	cells which had differentiated into insulin-producing β cells were found	0.3	95.1	5.4	virtually the same promoting activity in inducing differentiation as the Met-80 residue betacellulin	–	–
Met-76 residue betacellulin (ligand, Lacks the four C-terminal residues (Asp Leu Phe Tyr); also called Met-BTC76; BTC1-76) MDGNSTRSPETNGLLCGDPEENCAATTTQSKRKGHFSRCPKQYKHYCIKGRCRFVVAEQTPSCVCDEGYIGARCERV	–	–	–	–	–	95.1	–
Met-77 residue betacellulin: 77 residue betacellulin lacking three C terminal residues (SEQ ID NO: 1) with N terminal Met (protein, N-terminal Met; Human) DGNSTRSPETNGLLCGDPEENCAATTTQSKRKGHFSRCPKQYKHYCIKGRCRFVVAEQTPSCVCDEGYIGARCERVD	cells which had differentiated into insulin-producing β cells were found	–	–	–	virtually the same promoting activity in inducing differentiation as the Met-80 residue betacellulin	–	–
Met-80 residue betacellulin (ligand, Prepared in E. coli by the method of Japanese Kokai H10-191989; The N-terminal Met is retained; also called Met-BTC80; hBTC80) MDGNSTRSPETNGLLCGDPEENCAATTTQSKRKGHFSRCPKQYKHYCIKGRCRFVVAEQTPSCVCDEGYIGARCERVDLFY	–	–	–	–	–	1.2	Differentiation into insulin-producing β cells (stained cells under fluorescent microscope) (AR42J cells [7]; anti-insulin antibody/FITC staining): cells which had differentiated into insulin-producing β cells, were found; Incidence of insulin-producing cells (AR42J cells [7]; comparison between the proteins): no differences in the incidence of insulin-producing cells
